Laboratory results published in publication PMC10794133, “Structures of the promoter-bound respiratory syncytial virus polymerase”.

Assays:
[1] = biological target: T1, RSV L (RNA-dependent RNA polymerase);RSV P (phosphoprotein) (human respiratory syncytial virus, …, UniProt P28887;P03421 1-2165;1-241, |); assay: cryo-EM structure; GTP and CpNpp supplemented (no product density); pre-initiation at position 3; Cryo-EM grid conditions not in the material; protein in 25 mM HEPES pH 7.4, 300 mM NaCl, 6 mM MgSO4, 0.5 mM TCEP (gel filtration buffer); conditions: protein: recombinant;recombinant; tags: N-terminal 6xHis-TEV, TEV-treated;; copies: 1;4; single strand
[2] = biological target: T1, RSV L (RNA-dependent RNA …); assay: cryo-EM structure; pre-initiation at position 1; Cryo-EM grid conditions not in the material; protein in 25 mM HEPES pH 7.4, 300 mM NaCl, 6 mM MgSO4, 0.5 mM TCEP (gel filtration buffer); conditions: protein: recombinant;recombinant; tags: N-terminal 6xHis-TEV, TEV-treated;; copies: 1;4; single strand

T1 sequence (P28887 whole entry, chain 1 of 2): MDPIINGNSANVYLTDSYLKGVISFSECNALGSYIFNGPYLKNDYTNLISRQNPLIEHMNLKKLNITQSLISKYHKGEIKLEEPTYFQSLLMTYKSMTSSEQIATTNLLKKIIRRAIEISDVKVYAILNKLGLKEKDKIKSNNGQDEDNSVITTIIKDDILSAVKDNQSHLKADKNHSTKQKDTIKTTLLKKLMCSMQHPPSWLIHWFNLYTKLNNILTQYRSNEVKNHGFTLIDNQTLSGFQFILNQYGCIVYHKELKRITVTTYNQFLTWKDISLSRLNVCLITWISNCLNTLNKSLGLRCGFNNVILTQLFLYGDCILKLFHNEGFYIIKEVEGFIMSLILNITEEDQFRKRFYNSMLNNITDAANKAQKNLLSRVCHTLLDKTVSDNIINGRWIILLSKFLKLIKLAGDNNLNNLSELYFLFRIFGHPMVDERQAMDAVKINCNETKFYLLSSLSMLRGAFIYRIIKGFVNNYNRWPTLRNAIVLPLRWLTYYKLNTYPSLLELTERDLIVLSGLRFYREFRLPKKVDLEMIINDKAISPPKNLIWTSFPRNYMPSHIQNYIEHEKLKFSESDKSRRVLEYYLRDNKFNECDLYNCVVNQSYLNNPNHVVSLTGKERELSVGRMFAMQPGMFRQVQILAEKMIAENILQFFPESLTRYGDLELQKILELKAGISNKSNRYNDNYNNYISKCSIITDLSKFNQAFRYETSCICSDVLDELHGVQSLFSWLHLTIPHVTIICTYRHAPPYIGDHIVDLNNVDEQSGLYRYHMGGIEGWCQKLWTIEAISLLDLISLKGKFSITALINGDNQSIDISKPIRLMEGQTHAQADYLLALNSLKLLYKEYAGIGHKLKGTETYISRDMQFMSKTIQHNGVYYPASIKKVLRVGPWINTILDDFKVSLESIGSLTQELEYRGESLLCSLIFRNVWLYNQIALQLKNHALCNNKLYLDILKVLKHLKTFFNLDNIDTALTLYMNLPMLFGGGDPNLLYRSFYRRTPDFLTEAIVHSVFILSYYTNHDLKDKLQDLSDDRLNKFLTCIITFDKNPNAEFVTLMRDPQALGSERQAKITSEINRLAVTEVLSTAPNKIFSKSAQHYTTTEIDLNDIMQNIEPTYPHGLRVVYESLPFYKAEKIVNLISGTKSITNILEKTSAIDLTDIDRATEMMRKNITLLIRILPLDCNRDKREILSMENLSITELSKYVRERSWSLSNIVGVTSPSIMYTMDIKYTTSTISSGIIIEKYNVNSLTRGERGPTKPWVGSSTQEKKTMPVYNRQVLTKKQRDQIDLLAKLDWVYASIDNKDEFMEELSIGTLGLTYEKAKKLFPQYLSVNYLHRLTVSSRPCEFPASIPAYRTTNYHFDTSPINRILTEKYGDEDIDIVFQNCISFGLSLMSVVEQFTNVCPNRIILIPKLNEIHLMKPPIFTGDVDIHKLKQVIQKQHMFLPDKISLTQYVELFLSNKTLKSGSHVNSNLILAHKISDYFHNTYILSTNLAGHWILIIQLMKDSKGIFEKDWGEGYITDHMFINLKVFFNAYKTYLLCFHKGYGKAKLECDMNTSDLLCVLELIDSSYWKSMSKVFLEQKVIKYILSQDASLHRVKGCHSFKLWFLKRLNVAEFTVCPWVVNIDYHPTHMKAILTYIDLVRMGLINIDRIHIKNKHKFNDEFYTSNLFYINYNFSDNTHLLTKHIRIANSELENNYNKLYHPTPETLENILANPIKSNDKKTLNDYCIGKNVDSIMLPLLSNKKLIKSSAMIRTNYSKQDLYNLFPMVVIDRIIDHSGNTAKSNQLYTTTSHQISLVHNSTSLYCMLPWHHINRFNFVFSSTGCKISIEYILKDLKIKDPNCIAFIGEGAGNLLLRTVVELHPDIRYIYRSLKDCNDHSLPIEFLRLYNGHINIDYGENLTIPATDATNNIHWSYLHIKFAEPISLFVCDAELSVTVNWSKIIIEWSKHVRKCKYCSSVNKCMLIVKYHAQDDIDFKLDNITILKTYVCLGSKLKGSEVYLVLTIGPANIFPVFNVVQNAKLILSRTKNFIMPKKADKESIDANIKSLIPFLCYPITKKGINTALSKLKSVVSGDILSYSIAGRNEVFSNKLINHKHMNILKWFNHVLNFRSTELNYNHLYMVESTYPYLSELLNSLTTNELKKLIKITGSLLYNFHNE
T1 sequence (P03421 whole entry, chain 2 of 2): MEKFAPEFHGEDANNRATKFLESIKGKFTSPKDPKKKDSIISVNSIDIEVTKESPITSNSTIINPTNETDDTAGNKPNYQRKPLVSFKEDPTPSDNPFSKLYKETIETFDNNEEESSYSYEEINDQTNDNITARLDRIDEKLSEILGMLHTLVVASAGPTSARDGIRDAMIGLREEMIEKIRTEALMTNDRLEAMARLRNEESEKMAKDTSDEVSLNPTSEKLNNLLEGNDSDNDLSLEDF

Binder: UUUUUCGCGU (ssRNA) [Le10 (3' leader promoter of genome)]
- binding result [1]: binds

Binder: UUUUUCUCGU (ssRNA) [TrC10 (3' trailer complementary promoter of antigenome)]
- binding result [2]: binds
